Data taken from the supplement of paper PMC10126150.
± gives the standard deviation of the averaged measurements.

Test system: ATP
Assay: switch fluorescence ratio, 500 uM ATP over buffer (Cy3 cluster intensity, sum of 5 cycles each) (fold (ratio)); higher = stronger signal-on switching upon ATP binding; sequences stand for … in TCGTCGGCAGCGTCAGATGTGTATAAGAGACAGTTTTTTTTTTTTTTTTTTTTTTTTT…TC
Details: aptamer strand: ATP DNA aptamer (quencher-CACCTGGGGGAGTATTGCGGAGGAAGG + anchor), 100 nM annealed; ATP concentration: 500 uM
Outline: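 Clusters with intensities outside 100-1000 RFU were excluded. The remaining Cy3-labelled switching-strand clusters on a modified Illumina MiSeq flow-cell had been annealed to 100 nM quencher-labelled ATP aptamer and imaged in selection buffer, then after 15 min with 500 uM ATP at 22 °C, for five cycles separated by NaOH stripping and re-annealing. The fluorescence ratio, averaged per switch-domain sequence, is each cluster's summed target-cycle Cy3 intensity over its summed buffer-cycle Cy3 intensity.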
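Further: ATP exposure 15 min at 22 °C before imaging.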

TCTAGGGGGG showed a switch fluorescence ratio of 1.02 ± 0.058.

For GGTCCAGTGA, the switch fluorescence ratio was 1.02 ± 0.023.

With TGATGTAATG the switch fluorescence ratio was 1 ± 0.02.

Sequence CATTATTTAG has a switch fluorescence ratio of 1.01 ± 0.033.

TAAGATGTAA gave a switch fluorescence ratio of 1.03 ± 0.011.

With AACGAATTAC the switch fluorescence ratio was 1.79 ± 0.16.

TTGGGTGGCG gave a switch fluorescence ratio of 1.04 ± 0.12.

AGTAATATAT was tested, and the switch fluorescence ratio was 0.976 ± 0.028.

Work on TTGTTAGAAA yielded a switch fluorescence ratio of 1.002 ± 0.0058.

CAGGCCGTAT gave a switch fluorescence ratio of 1.01 ± 0.016.

In the case of CATCCGGGGG, the switch fluorescence ratio is reported as 1.56 ± 0.73.

ATACGGGGCT showed a switch fluorescence ratio of 1.03 ± 0.027.

With CCTTTAGGGG the switch fluorescence ratio was 0.997 ± 0.037.

With GAACACGGCG the switch fluorescence ratio was 1 ± 0.05.

GGGTGTAGAG gave a switch fluorescence ratio of 1.05 ± 0.078.

For GATTGGCTGT, the switch fluorescence ratio was 0.966 ± 0.029.

Work on AAAATAATTG yielded a switch fluorescence ratio of 1.03 ± 0.025.

With GCGGCCTTGT the switch fluorescence ratio was 1.04 ± 0.011.

With TTTACTGGCA the switch fluorescence ratio was 1.05 ± 0.076.

With CAATGTTAGA the switch fluorescence ratio was 1 ± 0.014.

Sequence GTCTAACGCG has a switch fluorescence ratio of 0.9698 ± 0.0072.

In the case of AAACTGTTTC, the switch fluorescence ratio is reported as 1.02 ± 0.016.

TTTTTAGGCC gave a switch fluorescence ratio of 0.999 ± 0.016.

For TTATGCAAAA, the switch fluorescence ratio was 1.14 ± 0.21.

For TGGTTGGTCA, the switch fluorescence ratio was 0.992 ± 0.01.

Work on GAACTATTCA yielded a switch fluorescence ratio of 0.9848 ± 0.0054.

With CATTTAAGTC the switch fluorescence ratio was 0.995 ± 0.023.

Work on CCGTTATAGT yielded a switch fluorescence ratio of 1.795 ± 0.012.

AGAGGAGTCT was tested, and the switch fluorescence ratio was 0.9706 ± 0.0019.

CATGGGAGTT showed a switch fluorescence ratio of 0.978 ± 0.025.

TCTGCTACAA showed a switch fluorescence ratio of 1.02 ± 0.038.

GCTACTCGAA showed a switch fluorescence ratio of 1.06 ± 0.02.

TTTGTATGGG showed a switch fluorescence ratio of 0.972 ± 0.018.

CGTCTGGTGG showed a switch fluorescence ratio of 0.991 ± 0.05.

AATTATATCA showed a switch fluorescence ratio of 1.01 ± 0.01.

ATACCAGTG showed a switch fluorescence ratio of 1.12 ± 0.055.

Sequence TGTATAAAGT has a switch fluorescence ratio of 0.986 ± 0.02.

Work on AATATTTGAA yielded a switch fluorescence ratio of 1.02 ± 0.021.

GAGGGCCGCA showed a switch fluorescence ratio of 1.05 ± 0.011.

For TGTTAGCCGA, the switch fluorescence ratio was 1.02 ± 0.026.

In the case of ATGAACATTT, the switch fluorescence ratio is reported as 1 ± 0.033.

With GGTTGGGTGT the switch fluorescence ratio was 1.02 ± 0.027.

With AAGGCGTAGT the switch fluorescence ratio was 0.979 ± 0.055.

GACGTATCAA gave a switch fluorescence ratio of 1.04 ± 0.025.

For CGGGATTTAA, the switch fluorescence ratio was 1.03 ± 0.054.

AATAACTCCG showed a switch fluorescence ratio of 1.224 ± 0.008.

GGAGATGCGG showed a switch fluorescence ratio of 1.02 ± 0.011.

Sequence AATCGTGGGG has a switch fluorescence ratio of 0.975 ± 0.017.

Sequence GGGGTTTTG has a switch fluorescence ratio of 0.953 ± 0.0088.

In the case of ATGTGTTGCG, the switch fluorescence ratio is reported as 1 ± 0.045.

With ATTCGAGTGT the switch fluorescence ratio was 0.984 ± 0.018.

Sequence AACGGTAATT has a switch fluorescence ratio of 1.1 ± 0.034.

In the case of TTGTGGGGCC, the switch fluorescence ratio is reported as 1 ± 0.029.

For AGAGAATACG, the switch fluorescence ratio was 1 ± 0.031.

For CGTTTCGTTT, the switch fluorescence ratio was 0.98 ± 0.039.

Sequence GGGCCAGTGA has a switch fluorescence ratio of 1.03 ± 0.039.

For TCTTTCAGTT, the switch fluorescence ratio was 0.9816 ± 0.0082.

Sequence ACGACTTTAG has a switch fluorescence ratio of 1.022 ± 0.0014.

In the case of TTATTCATCG, the switch fluorescence ratio is reported as 1.01 ± 0.031.

In the case of TCAGAGGATC, the switch fluorescence ratio is reported as 0.961 ± 0.017.

For GGTGAGGGTG, the switch fluorescence ratio was 1.1 ± 0.013.

For GTAAAGGGGG, the switch fluorescence ratio was 0.998 ± 0.023.

TCCTTGACTT gave a switch fluorescence ratio of 1.15 ± 0.26.

Work on CTTGGTTTCT yielded a switch fluorescence ratio of 1.032 ± 0.0093.

In the case of TGGTATAGGT, the switch fluorescence ratio is reported as 0.994 ± 0.038.

GGTCGAGGTT showed a switch fluorescence ratio of 0.991 ± 0.035.

AACAGGTACT showed a switch fluorescence ratio of 1.074 ± 0.0094.

With CGAAAGTAGC the switch fluorescence ratio was 1.01 ± 0.013.

CTAAGAGGGA was tested, and the switch fluorescence ratio was 0.999 ± 0.025.

TTATTTTAAC showed a switch fluorescence ratio of 0.981 ± 0.04.

Sequence CATGGTTTTT has a switch fluorescence ratio of 0.9989 ± 0.0082.

In the case of CTGGGGGCCG, the switch fluorescence ratio is reported as 0.979 ± 0.054.

TGGACTTATA was tested, and the switch fluorescence ratio was 1.02 ± 0.012.

With TTTACACAGG the switch fluorescence ratio was 1.17 ± 0.035.

In the case of GTCGTAGGGG, the switch fluorescence ratio is reported as 1.03 ± 0.018.

For TGACGGAAGG, the switch fluorescence ratio was 1 ± 0.032.

Sequence CTGATACTGG has a switch fluorescence ratio of 0.997 ± 0.045.

TATTGACTTT gave a switch fluorescence ratio of 1.28 ± 0.35.

TAACTAATTT gave a switch fluorescence ratio of 1.03 ± 0.017.

With GTTTAGGGGT the switch fluorescence ratio was 1.03 ± 0.081.

With TTGACGAAAT the switch fluorescence ratio was 1.41 ± 0.03.

ATGGGGAGTC showed a switch fluorescence ratio of 0.985 ± 0.035.

Sequence TATACGGAAT has a switch fluorescence ratio of 1.16 ± 0.051.

With AAAATCGAGC the switch fluorescence ratio was 1.02 ± 0.015.

With AGGGGAAAAC the switch fluorescence ratio was 1.03 ± 0.044.

With GATTTCGGGA the switch fluorescence ratio was 1.01 ± 0.04.

With GGTGTGTGGG the switch fluorescence ratio was 1.01 ± 0.033.

In the case of TTCCGGGGCG, the switch fluorescence ratio is reported as 0.991 ± 0.038.

TTATAATCTG gave a switch fluorescence ratio of 0.986 ± 0.064.

GTTAGAAGGT showed a switch fluorescence ratio of 1 ± 0.018.

Work on ATAACGCAGT yielded a switch fluorescence ratio of 1.0027 ± 0.00069.

CGTGTGATTT gave a switch fluorescence ratio of 0.988 ± 0.025.

CAGAAGCCTG showed a switch fluorescence ratio of 1.014 ± 0.0028.

In the case of GCGCTTTCAC, the switch fluorescence ratio is reported as 1.53 ± 0.026.

GGGATACTAG showed a switch fluorescence ratio of 1.01 ± 0.02.

TAAATTAAGT was tested, and the switch fluorescence ratio was 1.03 ± 0.029.

Work on GTCTTTAAGG yielded a switch fluorescence ratio of 0.964 ± 0.036.

Work on ATTTAAATTG yielded a switch fluorescence ratio of 1.02 ± 0.052.

Work on TGGTGGAGGT yielded a switch fluorescence ratio of 0.977 ± 0.011.

For ATCTTGGCAG, the switch fluorescence ratio was 0.968 ± 0.034.

GAGAGGGTGT gave a switch fluorescence ratio of 1.05 ± 0.081.

In the case of CGAGGGGCTG, the switch fluorescence ratio is reported as 1.03 ± 0.013.

ATATGGAAAT gave a switch fluorescence ratio of 1.006 ± 0.0027.

TATCGAAATT showed a switch fluorescence ratio of 0.981 ± 0.021.

GGGCAAGAAG was tested, and the switch fluorescence ratio was 1.021 ± 0.0073.

In the case of TTTTGGGGAA, the switch fluorescence ratio is reported as 1 ± 0.024.

CTTGGGGCAT was tested, and the switch fluorescence ratio was 1.025 ± 0.008.

In the case of ACATGAGGTG, the switch fluorescence ratio is reported as 1.18 ± 0.064.

In the case of GTTTGGGGGT, the switch fluorescence ratio is reported as 1.04 ± 0.12.

GAGGCAGCGA gave a switch fluorescence ratio of 1.3 ± 0.016.

In the case of GCCGGGGTCG, the switch fluorescence ratio is reported as 1.02 ± 0.037.

Sequence TTAATAAAAT has a switch fluorescence ratio of 0.966 ± 0.018.

GGTTTCCTTT was tested, and the switch fluorescence ratio was 0.992 ± 0.021.

TATAAATAGT showed a switch fluorescence ratio of 0.96 ± 0.046.

ATGCTGGTGG showed a switch fluorescence ratio of 0.978 ± 0.046.

With AACCGGTATT the switch fluorescence ratio was 0.9752 ± 0.0059.

Work on ACACCTTTTT yielded a switch fluorescence ratio of 1.04 ± 0.032.

AGGGGGTATG was tested, and the switch fluorescence ratio was 0.983 ± 0.014.

In the case of GGGACGCGCA, the switch fluorescence ratio is reported as 0.984 ± 0.036.

Work on CAGGCTAGGT yielded a switch fluorescence ratio of 0.9873 ± 0.0049.

ACACAGTAGT gave a switch fluorescence ratio of 1.03 ± 0.011.

For AAGTCCTTGT, the switch fluorescence ratio was 1.02 ± 0.013.

For CGTCTTACGT, the switch fluorescence ratio was 1.03 ± 0.051.

TGCAGGCAAG gave a switch fluorescence ratio of 1.01 ± 0.024.

GCCAGCAGCT gave a switch fluorescence ratio of 0.967 ± 0.014.

In the case of GGTGCTTTTT, the switch fluorescence ratio is reported as 0.987 ± 0.023.

Work on CACGGATGGT yielded a switch fluorescence ratio of 1.01 ± 0.069.

With GCGATTTTAA the switch fluorescence ratio was 1.02 ± 0.048.

CTACTATAAT was tested, and the switch fluorescence ratio was 1.04 ± 0.043.

In the case of CGTTTAGGGG, the switch fluorescence ratio is reported as 0.9766 ± 0.0063.

ATAAAGGAAG showed a switch fluorescence ratio of 0.99 ± 0.011.

With AAAATACCTA the switch fluorescence ratio was 1.15 ± 0.14.

Sequence ACGGCAGGAA has a switch fluorescence ratio of 1.04 ± 0.043.

With TTATTAGGAT the switch fluorescence ratio was 0.974 ± 0.024.

TAGGCCGTTT showed a switch fluorescence ratio of 1 ± 0.084.

Work on AAATATCTCA yielded a switch fluorescence ratio of 1.02 ± 0.013.

In the case of ACAAGTGACG, the switch fluorescence ratio is reported as 0.988 ± 0.026.

ATCCTGCAGT was tested, and the switch fluorescence ratio was 1.15 ± 0.031.

GCGAGGGGGA gave a switch fluorescence ratio of 0.984 ± 0.046.

Sequence TAAAATGTGA has a switch fluorescence ratio of 0.963 ± 0.021.

With ATTAACTGAA the switch fluorescence ratio was 1.04 ± 0.012.

In the case of GAGAGAGGGC, the switch fluorescence ratio is reported as 0.966 ± 0.073.

In the case of GCTAACACTT, the switch fluorescence ratio is reported as 1.02 ± 0.013.

TAGCACCATT gave a switch fluorescence ratio of 1.1 ± 0.072.

TCGTTCCGGT gave a switch fluorescence ratio of 1.02 ± 0.026.

AGGGGTACTT was tested, and the switch fluorescence ratio was 1 ± 0.049.

Work on GGCGGATTGG yielded a switch fluorescence ratio of 1.02 ± 0.015.

GATATTTCCC was tested, and the switch fluorescence ratio was 0.9981 ± 0.0064.

CGGGGAGAGG gave a switch fluorescence ratio of 0.998 ± 0.036.

With TGGTTGGACG the switch fluorescence ratio was 0.997 ± 0.017.

Sequence GACGGTTATC has a switch fluorescence ratio of 1.11 ± 0.059.

In the case of TACGGGGTCA, the switch fluorescence ratio is reported as 0.971 ± 0.03.

Sequence CAGTCAGCGG has a switch fluorescence ratio of 1.01 ± 0.02.

GGTTCGTTGG was tested, and the switch fluorescence ratio was 0.993 ± 0.013.

For AAGTGCATGG, the switch fluorescence ratio was 0.986 ± 0.036.

ATGCGGTCTG gave a switch fluorescence ratio of 1.04 ± 0.028.

In the case of AAATTTACAT, the switch fluorescence ratio is reported as 1.002 ± 0.0034.
